{
  "source": "patent US10029000B2",
  "about": "“Uses of IL-12 in hematopoiesis” (University of Southern California, priority 2003, dated 2018)",
  "assay_type_in_all_cases": "in vivo, mice",
  "key": {"bone marrow cells [1]": {"test_system": "bone marrow cells", "experiment": "BrdU incorporation assay", "conditions": "24 hours post IL-12 administration (10 ng/mouse); control 8%", "experimental": "(§1) It is believed that cells at S phase are more resistant to radiation. Both Brd-U incoperation and cell cycling analysis were performed to determine if IL-12 can stimulate bone marrow cell proliferation. In IL-12 treated mice, there are more bone marrow cells in S phase compared with control animals (12% vs 10%, p<0.05). Furthermore, there are more BrdU positive cells in IL-12 treated bone marrow compared with control animals (17% vs 8%, p<0.05).\n(§2) 24 hours post IL-12 administration (10 ng/mouse), bone marrow cells were isolated for BrdU incooperation assay (FIG. 7A).\nFor the BrdU assay, IL-12 (10 ng/mouse) or PBS was intravenously injected into mice. 21 hours after injection, mice were i.p. injected with 5-Bromo-2′-deoxyuridine (BrdU from Sigma) at 50 mg/kg dosage. 3 hours after BrdU injection, mice were sacrificed and whole bone marrow cells were isolated from femurs and treated with lysis buffer to destroy red blood cells. Bone marrow cells were dispersed on a slide by cytospin for the proliferation assay using BrdU immunohistochemistry system kit purchased from Oncogene Research Products (Boston, Mass.)"}, "bone marrow cells [2]": {"test_system": "bone marrow cells", "experiment": "Cell cycle analysis with propidium iodide staining", "conditions": "24 hours post IL-12 administration; control 10%, p<0.05", "experimental": "as §1, §2\nFor the cell cycling assay, IL-12 (100 ng/mouse) or PBS was intravenously injected into mice. 24 hours after injection, whole bone marrow cells were flushed from femurs and treated with lysis buffer to destroy red blood cells. After washing in PBS and fixing in −20° C. pure ethanol for at least 1 hour, about 5×10^5 bone marrow cells were treated with RNase A (20 ng/ul final concentration) at 37° C. for 30 minutes, then stained with propidium iodide (100 ng/ul final concentration) from Sigma (St Louis, Mo.) at room temperature for 15 to 30 minutes and then processed directly for cell cycling analysis using fluorescence activated cell sorting (FACS)."}, "Sca-1+ cells": {"test_system": "Sca-1+ cells", "experiment": "Annexin V / Sca-1 detection after lethal dose radiation (apoptosis)", "conditions": "IL-12 24 hours before 10 Gy, 7 hours post radiation", "experimental": "IL-12 administration protects Annexin V^−/Sca-1^+ cells (H4) from radiation induced apoptosis, where the Sca-1^+ positive cells are indicative of the presence of hematopoietic repopulating cell or hematopoietic stem cells and Annexin V negative cells are indicative of the functional bone marrow cells.\nA study was conducted to assess whether IL-12 administration protects Sca-1+ cells from radiation induced apoptosis. The Sca-1+ is a marker for hematopoietic repopulating cell or stem/progenitor cells. 24 hours post IL-12 administration, mice received lethal dose radiation (10 Gy). 7 hours post radiation, mice were sacrificed and bone marrow cells were isolated to detect Annexin V (an indication of cell apoptosis) and Sca-1 antigen (stem cell marker)."}, "small intestine": {"test_system": "small intestine", "experiment": "Small intestine histology after lethal dose radiation", "conditions": "5 ug/kg, 1000 rad or 1600 rad (10 and 16 Gy), 4 days post radiation", "experimental": "4 days post radiation, small intestine were removed, fixed for PAS staining for mice received 10 Gy (Periodic Acid Schiff), H&E staining for mice received 16 Gy. […] There is no obvious histological damage in mice who received 10 Gy radiation. (200× magnification)\nTo determine if IL-112 sensitizes intestinal tract to ionizing radiation, two different doses of IL-12 and radiation were used in radioprotection assay, namely 5 ug/kg and 50 ug/kg of IL-12 and two different doses of radiation were also used. Subsequent to the administration of IL-12 and radiation, both bone marrow and the small intestine were removed from mice who received either 5 ug/kg or 50 ug/kg of IL-12 and a lethal dose radiation for histology study. The lethal doses were either 1000 rad or 1600 rad.\nMice were treated with IL-12 (100 ng/mouse) or PBS 24 hours before receiving lethal irradiation. At different days after lethal irradiation, femurs, spleens and small intestines were removed and fixed in 10% formalin buffer for 24 hours. Subsequently, bone marrow was decalcified in Rapid Decalcifier for about 30 minutes. Samples and tissues then were embedded in TissuePrep 2 paraffin wax for micro-section at 5 μm for routine Hematoxylin and Eosin staining. Some small intestines were treated with PAS (Periodic Acid Schiff) staining."}, "[3]": {"test_system": "bone marrow progenitor cells", "experiment": "Colony forming cell assay (CFC assay) of bone marrow after lethal irradiation", "experimental": "To determine the bone marrow cell subsets that are protected by IL-12 administration for the rescue phenomena, CFC and CFU-S12 assay were performed at different time post lethal dose radiation. Bone marrow cells were recovered from IL-12 treated or control animals immediately (day 0), or at day 7, 9, 10, 12, 14 and 21 post radiation for CFC and CFU-S12 assay. If progenitor cells are protected from IL-12 treatment (IL-12 was administered in this study at 24 hours before radiation), CFC and CFU-S12 colonies should be detected when cells were removed at day 0. However, bone marrow cells isolated at day 0, 7 post radiation give rise no CFC nor CFU-S12 colonies in both IL-12 treated and control animals. At day 10 post radiation, the bone marrow cells isolated from IL-12 treated mice start to give rise of CFU-S12 but no detectable CFC, which start to appear from IL-112 treated bone marrow isolated 12 days post radiation and fully recovered from bone marrow cells isolated 14 days post radiation, as shown in FIGS. 5A and 5B. […] The CFU-S12 colony forming cells and CFC cells at day 10 and day 14 post radiation may be derived from long-term repopulating stem cells rescued by IL-12 treatment.\nFIG. 5A: Isolated bone marrow cells were plated in methycellulose plates for 12 days to detect colony formation. Bone marrow cells from normal mice were used as control for the assay system. […] In contract, there is no recovery of CFC cell activity from control mice bone marrow cells.\n24 hours before lethal irradiation, mice were i.v. treated with IL-12 (100 ng/mouse) and bone marrow cells were isolated from these mice at different days after lethal irradiation. For CFU assay, 2×10^5 bone marrow cells were thoroughly mixed into 1 ml methylcellulose medium MethCult GF M3434 from StemCell Technologies Inc (Vancouver, BC) and cultured into 35 mm dishes. Each sample was duplicated. After 12 days culture, colonies (>50 cells) were counted under microscope."}},
  "note": "Several values for one entry are separate records, joined by “and”; a condition that tells them apart may be missing. Identical values can stand only once.",
  "data": [
    {"molecule": "IL-12: Recombinant murine interleukin 12, heterodimeric cytokine (p35+p40), purchased from R&D Systems or PeproTech (protein, UniProt P43431 23-215; P43432 23-335, looked up) Interleukin-12 subunit alpha: RVIPVSGPARCLSQSRNLLKTTDDMVKTAREKLKHYSCTAEDIDHEDITRDQTSTLKTCLPLELHKNESCLATRETSSTTRGSCLPPQKTSLMMTLCLGSIYEDLKMYQTEFQAINAALQNHNHQQIILDKGMLVAIDELMQSLNHNGETLRQKPPVGEADPYRVKMKLCILLHAFSTRVVTINRVMGYLSSA Interleukin-12 subunit beta: MWELEKDVYVVEVDWTPDAPGETVNLTCDTPEEDDITWTSDQRHGVIGSGKTLTITVKEFLDAGQYTCHKGGETLSHSHLLLHKKENGIWSTEILKNFKNKTFLKCEAPNYSGRFTCSWLVQRNMDLKFNIKSSSSSPDSRAVTCGMASLSAEKVTLDQRDYEKYSVSCQEDVTCPTAEETLPIELALEARQQNKYENYSTSFFIRDIIKPDPPKNLQMKPLKNSQVEVSWEYPDSWSTPHSYFSLKFFVRIQRKKEKMKETEEGCNQKGAFLVEKTSTEVQCKGGNVCVQAQDRYYNSSCSKWACVPCRVRS", "values": [
      {"measurement": "BrdU positive cells in bone marrow", "setting": "bone marrow cells [1]", "value": 17, "unit": "%"},
      {"measurement": "bone marrow cells in S phase", "setting": "bone marrow cells [2]", "value": 12, "unit": "%"},
      {"measurement": "AnnexinV-/Sca-1+ cells in whole bone marrow", "setting": "Sca-1+ cells; control 9.7±1.5%, p<0.01", "value": "19.2±3.7% and 19.2±2.3%"},
      {"measurement": "proportion of AnnexinV-/Sca-1+ cells in total Sca-1+ cells", "setting": "Sca-1+ cells; control 44±5%, p<0.05", "value": "54±5", "unit": "%"},
      {"measurement": "small intestine histology versus control", "setting": "small intestine", "value": "no significant histological difference"},
      {"measurement": "CFC activity", "setting": "[3]; day 12 post lethal radiation", "value": "low level CFC cell activity"},
      {"measurement": "CFC activity", "setting": "[3]; first 9 days post lethal radiation, IL-12 24 hours before radiation", "value": "no detectable CFC activity"},
      {"measurement": "time of full recovery of CFC activity", "setting": "[3]; lethal radiation, IL-12 24 hours before radiation", "value": "about 14 days post radiation"}
    ]}
  ]
}
